How the values were obtained:
[1] = molecular target: Caulobacter crescentus suppressor of copper sensitivity protein C, wild type (Caulobacter crescentus); assay: mass photometry; reduced proteins diluted to ~150 nM and added in 2 µl steps to 10 µl buffer (25 mM HEPES pH 7.5, 150 mM NaCl); Refeyn One; mass of the main peak against the monomer's mass
[2] = molecular target: Caulobacter crescentus suppressor of copper sensitivity protein C, wild type (Caulobacter crescentus); assay: SEC-SAXS; inline SEC-SAXS (S200 5/150 GL) with sheath flow, 283 K, injection 5.6 mg/ml; molecular mass from the Porod volume
[3] = molecular target: Proteus mirabilis ScsC (Proteus mirabilis); assay: mass photometry; reduced proteins diluted to ~150 nM and added in 2 µl steps to 10 µl buffer (25 mM HEPES pH 7.5, 150 mM NaCl); Refeyn One; mass of the main peak against the monomer's mass
[4] = molecular target: Caulobacter crescentus suppressor of copper sensitivity protein C, C2S variant (Caulobacter crescentus); assay: as above
[5] = molecular target: Caulobacter crescentus suppressor of copper sensitivity protein C, C2S variant (Caulobacter crescentus); assay: crystal structure; reduced CcScsC C2S at 130 mg/ml, 37-39% MPD, 0.02 M CaCl2, 0.2 M sodium acetate pH 7.25, 4°C; space group P63, one protomer per asymmetric unit, trimer by crystallographic symmetry
[6] = molecular target: the molecule itself; assay: mass photometry; reduced proteins diluted to ~150 nM and added in 2 µl steps to 10 µl buffer (25 mM HEPES pH 7.5, 150 mM NaCl); Refeyn One; mass of the main peak against the monomer's mass

Molecule: Caulobacter crescentus suppressor of copper sensitivity protein C, wild type (enzyme)
- stoichiometry N [1]: 3
- stoichiometry N [2]: 3

Molecule: Proteus mirabilis ScsC (enzyme)
- stoichiometry N [3]: 3

Molecule: Caulobacter crescentus suppressor of copper sensitivity protein C, C2S variant (enzyme)
- stoichiometry N [4]: 3
- stoichiometry N [5]: 3

B1: Escherichia coli DsbC (enzyme, UniProt P0AEG6 21-236, looked up)
chain: DDAAIQQTLAKMGIKSSDIQPAPVAGMKTVLTNSGVLYITDDGKHIIQGPMYDVSGTAPVNVTNKMLLKQLNALEKEMIVYKAPQEKHVITVFTDITCGYCHKLHEQMADYNALGITVRYLAFPRQGLDSDAEKEMKAIWCAKDKNKAFDDVMAGKSVAPASCDVDIADHYALGVQLGVSGTPAVVLSNGTLVPGYQPPKEMKEFLDEHQKMTSGK
notes: E. coli DsbC, UniProt P0AEG6; monomer printed as 24.1 kDa; Control protein of the mass photometry; Probably the mature protein without signal peptide; also called EcDsbC
- stoichiometry N [6]: 2
